Tests used:
Assay type in all cases: cell-based
[1] = biological target: T1, humanized FGFR1c (hR1c)-expressing BaF3 cells (Homo sapiens, UniProt P11362); assay: DNA synthesis in humanized FGFR1c-expressing BaF3 cells; conditions: humanized FGFR1c only; 10 μg/ml heparin
T1 construct: expressed in transfected cells; host or cells: BaF3 (mouse pro-B) cells; pSRalpha vector
Text: In Examples 4, 5, 6, and 7, it was shown that FGF21 reacts with FGFR1c in the presence of betaKlotho. FGFR1c, betaKlotho, FGF21, and the like, which were used in an actual experimental system, were all derived from mice used as typical mammalian models. With regard to these molecules, the homology between a human and a mouse at the amino acid sequence level is extremely high (80% in FGF21, 78% in betaKlotho, and 98% in FGFR1). As a result, naturally, there are no problems regarding the compatibility of the human with the mouse, and thus it is clear that the same results as those from a murine molecule will be obtained even using a humanized molecule. In the present example, as a precautionary measure, an experimental system using a humanized molecule was constructed to confirm such respect, and an experiment was carried out. Specifically, the humanized cDNA of FGFR1c and that of betaKlotho were prepared from a commercially available human RNA sample (Takara Bio Inc.) by PCR. FGFR1c was introduced into an expression vector having an SRalpha promoter (pSRalpha), and betaKlotho was introduced into an expression vector having a CMV promoter (pcDNA3.1; Invitrogen). […] In the presence of heparin, humanized FGF21 was added in various types of concentrations to FGFR1c-expressing cells or FGFR1c/betaKlotho-co-expressing cells, and the amount of DNA synthesized was then measured.

[2] = biological target: T2, humanized FGFR3c (hR3c)-expressing BaF3 cells (Homo sapiens, UniProt P22607, A441S/A461E/A470D/A499P/A500N/A559S/A717S/A734V/A765M/C582S/D512S/D516E/D576E/D580N/D722E/D758Q/D785E/DEL405-414/E426D/E447G/E729D/E768D/F566Y/F579Y/F591S/F767L/G446S/G448T/G548D/G773S/G774F/H721N/I440P/I494L/I698V/I726M/INS417HSQMAVHKLAKSI/INS423TV/INS780T/K420R/K464R/K501R/K583H/L398M/L425A/L457Y/L554I/L645I/L752V/M488L/N428S/N434G/N453G/N644H/P401G/P402T/P436L/P502V/P584N/P778R/Q611K/Q775P/R397K/R399K/R416D/R498K/R568Q/S432N/S468P/S578C/S781C/T435V/T450M/T473V/T504K/T581P/T590S/T753A/T757N/V503T/V523I/V642I/V670I/V751I/V754L); assay: DNA synthesis in humanized FGFR3c-expressing BaF3 cells; conditions: humanized FGFR3c only; 10 μg/ml heparin
T2 construct: expressed in transfected cells; host or cells: BaF3 (mouse pro-B) cells; pSRalpha vector
T2 sequence (P22607 other isoform, or with tags, fused parts or gaps with the stated changes): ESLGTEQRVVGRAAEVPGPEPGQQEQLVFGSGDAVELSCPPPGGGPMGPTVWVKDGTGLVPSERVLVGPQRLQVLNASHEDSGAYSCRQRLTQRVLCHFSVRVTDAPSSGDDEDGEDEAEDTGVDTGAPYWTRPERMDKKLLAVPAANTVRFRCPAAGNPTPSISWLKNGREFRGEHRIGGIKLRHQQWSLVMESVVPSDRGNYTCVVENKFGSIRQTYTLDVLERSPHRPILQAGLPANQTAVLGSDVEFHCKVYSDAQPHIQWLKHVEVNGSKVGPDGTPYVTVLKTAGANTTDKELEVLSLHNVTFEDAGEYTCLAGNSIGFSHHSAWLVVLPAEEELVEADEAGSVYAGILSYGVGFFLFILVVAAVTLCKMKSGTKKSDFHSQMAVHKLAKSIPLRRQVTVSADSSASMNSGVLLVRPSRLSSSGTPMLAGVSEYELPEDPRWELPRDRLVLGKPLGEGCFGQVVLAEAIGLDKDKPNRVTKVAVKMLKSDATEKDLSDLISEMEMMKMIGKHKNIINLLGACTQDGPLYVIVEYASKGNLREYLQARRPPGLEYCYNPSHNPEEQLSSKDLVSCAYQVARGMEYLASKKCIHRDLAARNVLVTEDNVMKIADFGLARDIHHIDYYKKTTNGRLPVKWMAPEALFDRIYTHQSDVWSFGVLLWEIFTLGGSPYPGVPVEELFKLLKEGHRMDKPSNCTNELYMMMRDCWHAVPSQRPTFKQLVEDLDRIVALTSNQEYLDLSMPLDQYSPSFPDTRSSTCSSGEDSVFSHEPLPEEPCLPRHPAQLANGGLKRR
Method: The homology between human FGFR3 and mouse FGFR3 at the amino acid sequence level is 93%. […] The cDNA of humanized FGFR3c was prepared from a commercially available human RNA sample (Takara Bio Inc.) by PCR. The sequence of its intracellular portion was substituted with the sequence of humanized FGFR1, and it was then introduced into an expression vector having an SRalpha promoter (pSRalpha). The FGFR3c expression vector was introduced into BaF3 cells by an electroporation method, so as to obtain FGFR3c-expressing BaF3 cells as G418-resistant clones. In the case of FGFR3c/betaKlotho-co-expressing cells, a betaKlotho expression vector was introduced into the FGFR3c-expressing BaF3 cells, so as to obtain the aforementioned cells as Puromycin-resistant clones. In the presence of heparin, humanized FGF21 was added in various types of concentrations to FGFR3c-expressing cells or FGFR3c/betaKlotho-co-expressing cells, and the amount of DNA synthesized was then measured.

[3] = biological target: T3, BaF3 cells that had co-expressed FGFR1c and Klotho (Mus musculus, UniProt O35082+P16092); assay: DNA synthesis in BaF3 cells co-expressing FGFR1c and Klotho; conditions: presence or absence of heparin
T3 construct: the entire-length cDNA of mouse FGFR1c had been cloned; expressed in transfected cells; host or cells: BaF3 (mouse pro-B) cells
T3 sequence (P16092 22-822): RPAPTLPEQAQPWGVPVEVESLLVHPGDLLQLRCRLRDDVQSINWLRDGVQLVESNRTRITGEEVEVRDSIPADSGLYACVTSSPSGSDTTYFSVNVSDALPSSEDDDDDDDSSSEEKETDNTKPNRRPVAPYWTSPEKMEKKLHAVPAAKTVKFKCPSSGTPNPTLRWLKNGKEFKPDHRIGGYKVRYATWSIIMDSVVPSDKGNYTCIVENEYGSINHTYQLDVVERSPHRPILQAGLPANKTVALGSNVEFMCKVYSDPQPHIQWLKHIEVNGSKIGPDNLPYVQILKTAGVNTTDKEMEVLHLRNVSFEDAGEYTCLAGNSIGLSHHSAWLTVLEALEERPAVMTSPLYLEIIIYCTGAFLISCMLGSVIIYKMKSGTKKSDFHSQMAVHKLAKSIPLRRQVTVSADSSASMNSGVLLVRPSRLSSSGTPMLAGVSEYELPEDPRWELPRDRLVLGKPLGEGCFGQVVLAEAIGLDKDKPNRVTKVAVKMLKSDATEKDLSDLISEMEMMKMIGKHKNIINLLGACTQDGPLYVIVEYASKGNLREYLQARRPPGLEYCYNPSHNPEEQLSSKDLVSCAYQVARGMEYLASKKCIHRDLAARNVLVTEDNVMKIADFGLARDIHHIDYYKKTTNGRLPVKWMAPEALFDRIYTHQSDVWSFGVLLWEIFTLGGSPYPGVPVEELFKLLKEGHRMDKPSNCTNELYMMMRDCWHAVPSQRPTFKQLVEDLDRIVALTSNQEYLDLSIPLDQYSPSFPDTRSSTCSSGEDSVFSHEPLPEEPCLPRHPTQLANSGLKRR
T3 sequence (O35082 35-1014): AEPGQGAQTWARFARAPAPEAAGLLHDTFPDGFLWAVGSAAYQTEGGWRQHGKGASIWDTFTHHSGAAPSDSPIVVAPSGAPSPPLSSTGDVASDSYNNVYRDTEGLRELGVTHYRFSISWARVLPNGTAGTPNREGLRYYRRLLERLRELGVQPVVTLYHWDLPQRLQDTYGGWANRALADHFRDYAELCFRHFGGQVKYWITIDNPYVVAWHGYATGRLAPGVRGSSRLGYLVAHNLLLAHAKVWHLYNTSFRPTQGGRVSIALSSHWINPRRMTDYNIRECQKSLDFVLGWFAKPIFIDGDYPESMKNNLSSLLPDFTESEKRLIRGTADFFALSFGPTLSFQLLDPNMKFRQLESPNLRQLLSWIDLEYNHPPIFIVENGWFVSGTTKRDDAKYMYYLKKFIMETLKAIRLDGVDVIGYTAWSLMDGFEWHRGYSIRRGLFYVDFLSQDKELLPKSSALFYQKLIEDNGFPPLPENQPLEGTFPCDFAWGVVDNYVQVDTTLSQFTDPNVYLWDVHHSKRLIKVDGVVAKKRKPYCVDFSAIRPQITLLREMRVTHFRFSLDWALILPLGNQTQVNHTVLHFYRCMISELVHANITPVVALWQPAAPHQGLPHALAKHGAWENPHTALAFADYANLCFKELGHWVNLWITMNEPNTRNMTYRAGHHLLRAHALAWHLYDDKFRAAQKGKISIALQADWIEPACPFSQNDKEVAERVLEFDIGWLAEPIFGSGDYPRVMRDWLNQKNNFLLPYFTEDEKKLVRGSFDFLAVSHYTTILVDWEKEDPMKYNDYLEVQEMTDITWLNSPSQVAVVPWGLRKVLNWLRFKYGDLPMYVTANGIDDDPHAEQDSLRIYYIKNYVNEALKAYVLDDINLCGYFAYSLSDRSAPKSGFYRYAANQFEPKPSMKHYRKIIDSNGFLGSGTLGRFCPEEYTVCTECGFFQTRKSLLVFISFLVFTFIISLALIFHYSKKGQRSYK
Method: Specifically, BaF3 cell that had co-expressed FGFR1c and betaKlotho and BaF3 cells that had co-expressed FGFR1c and Klotho were prepared by the same transformation method and under the same culture conditions as those applied in Example 4. Thereafter, FGF21 and FGF23 were added to both types of transformed cells in the presence or absence of heparin, and the amount of DNA synthesized was then measured.

T1 sequence (P11362 22-822): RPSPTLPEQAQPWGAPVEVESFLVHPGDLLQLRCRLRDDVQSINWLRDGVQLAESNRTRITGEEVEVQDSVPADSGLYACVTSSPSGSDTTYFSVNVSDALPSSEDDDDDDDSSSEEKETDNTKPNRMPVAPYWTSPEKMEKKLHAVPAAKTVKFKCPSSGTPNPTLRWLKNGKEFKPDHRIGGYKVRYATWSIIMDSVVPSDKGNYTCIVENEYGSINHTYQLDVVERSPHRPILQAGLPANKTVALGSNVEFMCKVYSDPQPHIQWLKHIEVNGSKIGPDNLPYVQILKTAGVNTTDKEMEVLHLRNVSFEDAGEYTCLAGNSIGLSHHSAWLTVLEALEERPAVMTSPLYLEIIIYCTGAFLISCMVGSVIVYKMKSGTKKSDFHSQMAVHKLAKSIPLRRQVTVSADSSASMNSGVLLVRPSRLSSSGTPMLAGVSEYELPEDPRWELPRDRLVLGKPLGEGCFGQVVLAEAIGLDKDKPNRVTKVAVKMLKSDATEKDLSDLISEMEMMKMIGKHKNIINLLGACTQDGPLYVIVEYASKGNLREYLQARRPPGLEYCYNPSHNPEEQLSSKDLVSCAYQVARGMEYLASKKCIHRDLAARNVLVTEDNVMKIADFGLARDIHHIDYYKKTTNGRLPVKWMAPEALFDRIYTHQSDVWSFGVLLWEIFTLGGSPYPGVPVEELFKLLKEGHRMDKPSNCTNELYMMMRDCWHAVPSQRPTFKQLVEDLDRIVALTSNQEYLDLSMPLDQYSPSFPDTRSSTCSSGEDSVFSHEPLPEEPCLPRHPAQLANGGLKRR

## FGF1: conventional FGF used as a control
[1]
  amount of DNA synthesized (thymidine incorporation): promoted the DNA synthesis
[2]
  amount of DNA synthesized (thymidine incorporation): promoted the DNA synthesis

B1: FGF21: fibroblast growth factor 21; mouse-derived protein used in Examples 1-7 and 10-13 (protein)
chain: AYPIPDSSPLLQFGGQVRQRYLYTDDDQDTEAHLEIREDGTVVGAAHRSPESLLELKALKPGVIQILGVKASRFLCQQPDGALYGSPHFDPEACSFRELLLEDGYNVYQSEAHGLPLRLPQKDSPNQDATSWGPVRFLPMPGLLHEPQDQAGFLPPEPPDVGSSDPLSMVEPLQGRSPSYAS
[3]
  amount of DNA synthesized: did not react with FGFR1c
